Results taken from a protein production outcome set (Wang et al. 2014).

Assay: label from the status in PepcDB records

Sequence | protein production
MDRIDAMKVFVAAIDEGSLAGAARRLKRSPTAVSRALSFLEAHVGVELLHRTTRTLKLSEAGQRYAAACRRVLTDLEEADMLAGGERSAPRGMLTISSPPILGEEILRPILDDFLDLYPTVSVRLLLLDRFVNLVDEGVDIALRIGQLADSSLISTRLGGDVRRVVVASPRYLANHPRIEEPADLDKHQILAFTNFGLESWSFTPAKGSSVPRTIQFTPRCIVNSVRAAAASAAAGRGLTRLYSYHVAEYVRDGRLEIVLADAEHPPLPAHLIAPQGRMSVPKVRAFVDFAAPRLRSEFARMAAEAGTLT | failed
MDRLKAMQVFVEVADRGSLSAAAMHLGMSRAMVSRYLAELEAWVGVRLLHRTTRRLSLTPAGSETLPRCRRMLEMVGDMREAVAAPDAEPRGLLRVTAAMSFGGAQLAEAVAEFVRRHPAASIDLLLVDRAVNLVEERVDLAVRITNDLDPNLIGRRLADCRSVVCAAPQYLQQHGAPARAEDLSLHNCLTHSYFGRSLWRFERAGEPVEVPVGGNITANETDVLMRAALAGAGIVMLPTYLAAGQIAAGTLRPLLPDCAPPVLGIHGVYVSRKQMPLILRTMLDFLAERFNPAPWDAALEGR | failed
MDRLSDFERLTAEIKSLKESLKEKIDKVLSRSVKEASETSEEKKEQSEIAEEGNEDGDNVLVSSLEDEIDSKEEEVLAASCRLLNMFRELDCTFDGPERRMGRLNLNEITEACSRHIVTAMETEQETLNRAISISNAWKHQVSALFNGGIEGEQIKKDLQRLKASSGDEVYWLIRKAFREARVALRTNVYMKPWNLEERREATLMELLGPLPEIARRRLQGRPRRDDCC | failed
MDRMAVAEEQILLERVRRKIEEVNASGQSQLSPIQEHISFTLLIYAPLIDDELQQAYFKCSNECFEKRRKPEVTTNCVELCRVPVAKSQQQFDSDMAKFQDRMNRSLMVCQDKFEAAKLLNMNRIDAAKDMEGCVNDAAAALLGG | failed
MDRRLKKCSTSTDVESVHDVSKVTDPLQKAKRELDNVEIKEKQKKQKNQNETSEKETKKFSTVYEKFNDTIKELDRVSGTCPIRPAIPFTPPKEKVEPIYHNECNFDDKAHLGVSDSALFVQGFDTSHPRHEIKTALWNHFSSCGKVYLIYVPIACSTGASVGYAFIDMKNETKGLTLNGSHLGGRKIDVMFAIDREEFYFSSNLKHCQRCRNYRPWLVLKAMSDACFEYHQRIKPRIVGTPHSKIGRFTAIIGRRSYS | failed
MDRRVTRRGVLAAAGIALAGCTDNGDDQPVRTPLPDEEREPLSNTWRSLGRDDGNTGAVAGIAGPYIEVAAEWQFDVGGAVIGGPVFDENTLYAGTADGEVYALDTHVGAERWSFSADGPVSTTPVVDDGLVAVGSSDGHIYGIDADDGTELWRFDTAVRVDSSPAIDDRYVYAGSVSNAAYAIDRTNGELHWRFDADGSVLASPAVGDETVYVASTDHNVYAIDPDSGEADWQFTTGGEISVAPTLVGDRLYVGSRDSSVYAIDTGSGEGRWSFGLEAAVASSPAVLGDRLFVGAADHNLYALGIGDDSPEGLWRSPTPGAAVGNPAVTDDHVFFGGRDGAVRALRTDGGDRSWEHDVDGGIQGGPALTDRWLYVGTDAGTVYAFRAG | failed
MDRSYAVFGLGEFGRSVSYELMEIGADVLAVDKNENKITAIADDVTMAISIDALNEMAYEKLGLNNMDGVVVSMSGNLSASIMAIIAAKDAGVPLVIAKASDDTQRTIFKKVGADRVVIPERDGAVRTAHNLVAKNFLDYIELSDKISIIEINVKDEWLHKPLAELNLRSKYGLNVIAIRRNNDLQTDIGPNLTFDKGDTILVVTDKHDLGL | failed
MDRTLTHQPQEYAVSVSVGEVKLKGNLVIPNGATGIVLFAHGSGSSRYSPRNRYVAEVLQQAGLATLLIDLLTQEEEEIDLRTRHLRFDIGLLASRLVGATDWLTHNPDTQHLKVGYFGASTGGGAALVAAAERPETVQAVVSRGGRPDLAPSALPHVKAPTLLIVGGYDLPVIAMNEDALEQLQTSKRLVIIPRASHLFEEPGALTAVAQLASEWFMHYLR | not failed
MDSASQDINLNSPNKGVLSDFMTDVPVDPGVVHRTPVVEGLTEGEEEELRAELAKVEEEIVTLRQVLAAKERHCGELKRRLGLSTLGELKQNLSRSWHDVQVSTAYVKTSEKLGEWNEKVTQSDLYKKTQETLSQAGQKTSAALSTMGSAISRKLGDMSSYSIRHSISMPVMRNSATFKSFEDRVGTIKSKVVGGRENGSDNLPPSPGSGDQTLPDHAPF | failed
MDSDFHVKPEIRILGIDDSALLNEKVMIVGTVFRGGDWIDGVLRSEITRDGLDATEVMVTMIKNSRHHNQLRVIMLDGITYGGFNVVDIEELYRETGLPVIVIMRSCPDFEKIRSALKHFSDGEERWKIIKKAGKIEKLITGRNGTPIYIQKAGIGAKNVEKIIRLTSIRSSIPEPLRVAHLIATGITLGESRGKA | failed
MDSGFTLRAPRNDKRRNPMPAILGTGEHRYRVVENFAKLPDGWQLTDVAAVAVDSLDRVYVFNRGAHPMVVLDREGNFLRSWGEGLFSRAHGLHIDADDNLYCTDDGDHTVRKCTSDGKVLLTIGIPAKPAPFMSGEPFHRCTHTALSPKGEIYVSDGYGNARVHKFTPDGKLIKSWGEPGTDPGQFNIVHNIATDSDGWVYVADRENHRVQVFNGEGKYETQWNNLHRPCALCCCGGRSPTFVIGELGPGLDINRNVPNLGPRLSIVDAKGNRIARLGGEEGPGVASGKFLAPHGIALDSKGDIYVGEVGVTNWATSFPDQEMPAVVRATRCLQKLERVRELEHHHHHH | failed
MDSGPLWDANPTPRGTLSAPNATTPWLGRDEELAKVEIGVLATVLVLATGGNLAVLLTLGQLGRKRSRMHLFVLHLALTDLAVALFQVLPQLLWDITYRFQGPDLLCRAVKYLQVLSMFASTYMLLAMTLDRYLAVCHPLRSLQQPGQSTYLLIAAPWLLAAIFSLPQVFIFSLREVIQGSGVLDCWADFGFPWGPRAYLTWTTLAIFVLPVTMLTACYSLICHEICKNLKVKTQAWRVGGGGWRTWDRPSPSTLAATTRGLPSRVSSINTISRAKIRTVKMTFVIVLAYIACWAPFFSVQMWSVWDKNAPDEDSTNVAFTISMLLGNLNSCCNPWIYMGFNSHLLPRPLRHLACCGGPQPRMRRRLSDGSLSSRHTTLLTRSSCPATLSLSLSLTLSGRPRPEESPRDLELADGEGTAETIIF | failed
MDSKQQRIGVIGTGAIGGFYGLMLAHAGHDVHFLLRSEFEAVNRAGLSLNSAVHGFRRLAPVQAYHSAQDMPPCDWLLVGAKTTGNDELAPLIRAAAAPGAKVLLLQNGLGVEERLRPLLPESLHLLGGLCFICVHRGEPGVIEHQAYGGVNLGYHSGPADERRRREIVEEGAALFRESGLESTAMPDLEQARWQKLVWNIPYNGLSVLLKSSTAPLMANADSRSLIEAIMEEVIGAAGACGFILPEGYADQLLAATERMPDYRPSMYHDFAHGRPLELAAIYAAPLARAAAAGYR | failed
MDSLRFNLQQSPFQLKPRILRPRITNISNRIDETDPRPSSSAGRIQRLVLNNEGRTKLNADPDREFYSYPRFVNHVDDSFISSLTELYRNRLRPGSTVLDLMSSWVSHLPEEVKYEKVVGHGLNAQELARNPRLDYFFVKDLNEDQKFEFEDKYFDAVLCSVGVQYLQQPEKVFAEVYRVLKPGGVLIVSFSNRMFYEKAIRVWRDGTEYSRIQLVVQYFQSIEGFTQPEIIRQQPGAQISVLTRLMGFIGLASTPDPFNAVIAYKNFKPIYE | failed
MDSQELKTLINYYCQERYFHHVLLVASEGIKRYGSDPVFRFYHAYGTLMEGKTQEALREFEAIKNKQDVSLCSLLALIYAHKMSPNPDREAILESDARVKEQRKGAGEKALYHAGLFLWHIGRHDKAREYIDRMIKISDGSKQGHVLKAWLDITRGKEPYTKKALKYFEEGLQDGNDTFALLGKAQCLEMRQNYSGALETMNQIIVNFPSFLPAFVKKMKLQLALQNWDQTVETAQRLLLQDSQNVEALRMQALYYVCREGDIEKASTKLENLGNALDAMEPQNAQLFYNITLAFSRTCGRSQLILQKIQTLLERAFSLNPQQSEFATELGYQMILQGRVKEALKWYKTAMTLDETSVSALVGFIQCQLIEGQLQDADQQLEFLNEIQQSIGKSAELIYLHAVLAMKKNKRQEEVINLLNDVLDTHFSQLEGLPLGIQYFEKLNPDFLLEIVMEYLSFCPMQVSNYGTYFQGCVYLMFYERT | failed
MDSQTGVTRRRLLLGLGSGLGLLGGGGAYVYWSLQGDSGEYTAPNSQPVVTTRGLLDSAEEPAAETEGAWSFDDASEVFLFVHGFSTDAETARDNAYTAQLALGEYTSAPVVAYSWDSDVEWEQAKDNAVANRTLLAQWLMEWAETDGRPVHVLAHSLGARVTGETLRVLAEQGATDVLASVSLLGGAIPYDSVVQGGRYGDAIEAVDAPVSNFYSQNDKVLSWVYRASDRTHAVGHAGTRDAGPLPDGYQDVNVTDLVADHYSYFEPGEGCLARVVAEIE | failed
MDSRLAMFAPCPRGLEQILADELLALGAGDIAPADGGVAFAGDARLMMAVNLHSRTASRVLLRLAHGGYHAEQDIYRLAMSVDWPRWFEVSRTIKLKADGIAARVKSLDYIGLTVKDAICDRFRQAHLGRPSVDTRHPDVRVNVFLTADEATIYLDTSGEPLFKRGWREETGEAPLRENLAAGILLLAGYDGSQPLLDPMCGSGTFLVEAADIALNRAPGRARRFGFEALSSFDSAAWEKLQQDARKAEQPASSLAIRGSDRSQAMVNIARANLERAGLAELVEVSAADVTASRPHAEHGLIVSNPPYGVRLEEQDQLAAWYPELGDWLKAHFAGWTACLFSGDLRLGKLIRLAPKRRTPLFNGSLQCRLFVINMVEGSARKQKDGDEAEIETGDEQ | failed
MDSSREANRKHDAEEKREDEKTSLMEVNLMVVLLSQLSTKKEDENGLEKERRDHVAHEARESRARANKRFMKDTKLMEKRTHVLQPMAKEFRHYRKM | failed
MDTCGVGYVALGEAGPVGNMTVVDSPGQEVLNQLDVKTSSEMTSAEASVEMSLPTPLPGFEDSPDQRRLPPEQESLSRLEQPDLSSEMSKVSKPRASKPGRKRGGRTRKGPKRPQQPNPPSAPLVPGLLDQSNPLSTPMPKKRGRKSKAELLLLKLSKDLDRPESQSPKRPPEDFETPSGERPRRRAAQVALLYLQELAEELSTALPAPVSCPEGPKVSSPTKPKKIRQPAACPGGEEVDGAPRDEDFFLQVEAEDVEESEGPSESSSEPEPVVPRSTPRGSTSGKQKPHCRGMAPNGLPNHIMAPVWKCLHLTKDFREQKHSYWEFAEWIPLAWKWHLLSELEAAPYLPQEEKSPLFSVQREGLPEDGTLYRINRFSSITAHPERWDVSFFTGGPLWALDWCPVPEGAGASQYVALFSSPDMNETHPLSQLHSGPGLLQLWGLGTLQQESCPGNRAHFVYGIACDNGCIWDLKFCPSGAWELPGTPRKAPLLPRLGLLALACSDGKVLLFSLPHPEALLAQQPPDAVKPAIYKVQCVATLQVGSMQATDPSECGQCLSLAWMPTRPHQHLAAGYYNGMVVFWNLPTNSPLQRIRLSDGSLKLYPFQCFLAHDQAVRTLQWCKANSHFLVSAGSDRKIKFWDLRRPYEPINSIKRFLSTELAWLLPYNGVTVAQDNCYASYGLCGIHYIDAGYLGFKAYFTAPRKGTVWSLSGSDWLGTIAAGDISGELIAAILPDMALNPINVKRPVERRFPIYKADLIPYQDSPEGPDHSSASSGVPNPPKARTYTETVNHHYLLFQDTDLGSFHDLLRREPMLRMQEGEGHSQLCLDRLQLEAIHKVRFSPNLDSYGWLVSGGQSGLVRIHFVRGLASPLGHRMQLESRAHFNAMFQPSSPTRRPGFSPTSHRLLPTP | failed
MDTDNNLTFVDFYYRWLEITKLDIINDTSYKRYITAIKAFKDCFGNKLISDIDSLSYQKFLKDYGRGHFLNNGQLRPRTSNTVSKMNNCLKQAFESAVEQGYIKKNLEHHHHHH | failed
MDTEMLIDKYQLNDSEAAVLRFMDKNRDCLKSLGIREVAKASYVSTTAIINMAKKIGYSGYSELVFAYGNKHSSISFPENFSNEEKDEFIRLLSRYREKRIMVLGSGFSQNIANHFSEMLNLYGFRATANSHLEFLRENVEKDVLIFIVSNSGDTLRLAELVKLAKNHHIDLIAFVGEKKSKIGQLATLTISTETYNPQVVSEYQPNLFFGTALNQFELLLSEALKSIFI | not failed
